Test results reported in the RNAGym collection of RNA variant scans (doi:10.1073/pnas.2313332121).
This sample holds only a part of the variants without activity.

B1: TPR 5TU (parent)
chain: GGAUCUUCUCGAUCUAACAAAAAAGACAAAUCUGCCACAAAGCUUGAGAGCAUCUUCGGAUGCAGAGGCGGCAGCCUUCGGUGGCGCGAUAGCGCCAACGUUCUCAACUAUGACACGCAAAACGCGUGCUCCGUUGAAUGGAGUUUAUCAUG

Variants of: B1
Experiment: polymerase ribozyme fitness, log enrichment relative to wild type (log ratio); higher = more active; in vitro selection for triplet polymerase activity
Procedure, shortened: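 After PCR construction and transcription, each subunit's mutant library from a heterodimeric triplet polymerase ribozyme was annealed with a biotinylated primer, the partner subunit and triplets. Incubation was frozen, at −7 °C, and extended constructs were gel-excised, bound to streptavidin beads and amplified by RT-PCR, in one selection round done in triplicate. Fitness is the logarithm of a genotype's enrichment divided by that of the wild type, from inverse-variance-weighted replicate averages of Illumina-sequenced inputs and outputs. The base of the logarithm is 2, and genotypes needed ≥10 input reads and ≥1 read per output.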

Row | Variant | polymerase ribozyme fitness (log ratio)
1 | U4G U6A U13A C14A U33A A39G | ≤ -4.2
2 | C5G U139A | -3.99
3 | U4A U13C C36U C96G | -2.21
4 | C5A C75U C87U | 0.223
5 | C5U U31C A37U C76G U109C U135C | ≤ -4.2
6 | C5U C14G G59C C63U C85U U101G | -3.47
7 | C5A A64G A66G U134G | ≤ -4.2
8 | U4A A21G G68A A73G G86U A142G | ≤ -4.2
9 | C5G C51A | -1.01
10 | C5G C10G U13G C14G C54A C57U G88U G94A U139C U144C | ≤ -4.2
11 | U6A C79A C99U A107G | ≤ -4.2
12 | U4G G34A C96G A97U C123A C132A | ≤ -4.2
13 | U4G A30G A91G G94C G128U C132A | ≤ -4.2
14 | C5G A24C A28C U55G G58A C63U C105G A137G U151G | ≤ -4.2
15 | U4A C10U A23C C57U G81A G92C A115C C118A | ≤ -4.2
16 | U4C A115G | -1.57
17 | U4A U31G A37C G86C C123G | ≤ -4.2
18 | U4C A49U C93A | -3.07
19 | C5U A19G U135C G141U | -3.73
20 | C5A A39U C85U U90G C118U C125U | ≤ -4.2
21 | U4C C8U A22U G50U C54U A107U C116G | ≤ -4.2
22 | U4C C36G G50A C51A C75A G83A G112U C116A | ≤ -4.2
23 | C5U C69A | -2.55
24 | U4G C18U C51U G80C A91G C95G C105U U109A A119U | ≤ -4.2

Row | Variant | polymerase ribozyme fitness (log ratio)
25 | U4A C76A C93A A115G G124C C149U | ≤ -4.2
26 | C5G A37U C43U A98G A121G | ≤ -4.2
27 | C5A A52U G83A | -3.03
28 | U6A A24C A40U A52U C57A A98U A115C | ≤ -4.2
29 | C5G G80A | 0.101
30 | C5G U15G A49U A91U C116A C149G | ≤ -4.2
31 | U4G A21C U56G C85U G124U | -1.58
32 | U4A C57G G83A | -1.23
33 | C5A C36G A49C U61A G84A | ≤ -4.2
34 | C5A C76U C93A | -1.5
35 | C5G A16C G59U C96A | -2.66
36 | U4C G50C G62A G84A G92C | ≤ -4.2
37 | C5A U33G C38U A49C G67C G92C | ≤ -4.2
38 | U4A A17G A47G G68U C69G G88U G124A U127A G128C G140U U145G | ≤ -4.2
39 | U4C C69G G141U A147U | -1.91
40 | U4A C8A C43A A64U C93A U146C | ≤ -4.2
41 | U4G A47C C51U G80A G84A G94U A97U | ≤ -4.2
42 | U4A A52G C57A G126U | -1.17
43 | C5U C75U C85U | 1.35
44 | C5A A20C A41G C93A A147C | -1.66
45 | C5A A91U | -4.1
46 | U4G C51G A73U C87U C96A G117A | ≤ -4.2
47 | U6A A115U G141U | -1.01
48 | C5A G34A | 0.15

Row | Variant | polymerase ribozyme fitness (log ratio)
49 | C5G C14A G48U U53A G74A G80C U82G C96G C118G G133U | ≤ -4.2
50 | C5A G68C G80C C85G A138G | ≤ -4.2
51 | U6A A20C A49U A52C C79U C93A C118G | ≤ -4.2
52 | U4A G94C | -0.637
53 | C5G C85U | -1.17
54 | C5G C85G | -1.46
55 | C5U A21U G84A C131A | -2.96
56 | U6A A23U G83A C105U C108A | ≤ -4.2
57 | C5A G86U G92U C116G | -0.979
58 | U4G C8G A19G A49U U53C A73G G83A A98G A113C A115U | ≤ -4.2
59 | C5A A22U A24U C27G A39C C57U A60U C85G | ≤ -4.2
60 | C5U A28U C51G C75G C95U G141U | -4.02
61 | C5G G25U C27G A37G G46A U61A C96U | -4.17
62 | C5A G86U G141A | -1.49
63 | U4C C5A U15C C36G U53A | -4.12
64 | C5G A24C G48A A52C C85U G140U | ≤ -4.2
65 | C5U C14U A23C U90C C96A C103G G124U | ≤ -4.2
66 | U4G G140C | ≤ -4.2
67 | U4A U139C | -4.08
68 | A3U U90C A97G A150G | -3.73
69 | U6A C18U A49C C79A A91G U101C C103A | ≤ -4.2
70 | U6A A12U A20U A41U A89C A120U | -3.91
71 | U4G C10A U56A G71C G84C | ≤ -4.2
72 | C5G U31A A147C | -0.56

Row | Variant | polymerase ribozyme fitness (log ratio)
73 | C5A G58C A60G G92A A121U | -1.56
74 | U4G C5U U55G A106C | -2.25
75 | U4A C36G C131A G136A | ≤ -4.2
76 | U4G A12C U15A G80C U90G G126C G143C | ≤ -4.2
77 | C5A C54U | 0.00554
78 | C5G A23G A52U C87G C99A | ≤ -4.2
79 | C5U A21G U139C U146A | -3.99
80 | C5U U7G C14G A21C U56G C57A G58C C103A A142U U145C | ≤ -4.2
81 | C5A A12G G84A G88A A97U C116A | -3.84
82 | C5G A17G C93G C95U | -3.96
83 | C5G U135C | -2.4
84 | U4A C8U A29C A41C G58A C75A C79U G83A | ≤ -4.2
85 | C5A A21U A30G A39U G68A C149A | ≤ -4.2
86 | C5U A20G A49U G86U | -3.71
87 | C5A U31C C36A G62C A66G C85G U104A | ≤ -4.2
88 | U6A C10A C27G G46C C69A C93U G94C A97C | ≤ -4.2
89 | U4A U61A G94A | -1.99
90 | C5A U13G C27A C36A C51U C87A | ≤ -4.2
91 | C5G G152C | -2.87
92 | C5G U6C C57A C85U | -1.26
93 | C5U C57U C87A A91C | ≤ -4.2
94 | C5A U6C A30U A91U C118A A138G | ≤ -4.2
95 | U4A U33C G59A U90G C95A U111G C125A | ≤ -4.2
96 | C5G C43U A73U G92U U134A U144C | ≤ -4.2

Row | Variant | polymerase ribozyme fitness (log ratio)
97 | U4A C8U G46C C93A G100A C118U | ≤ -4.2
98 | A3U U56A G88C U145G | -3.98
99 | C5A U53A C93U C125A G152A | -4.17
100 | C5A C8U U9G C51U C85U A106U A107C C118A | ≤ -4.2
101 | C5G A21G C57G C93U A115U | -3.31
102 | U4G C99U | -0.868
103 | C5G A17G U61A G67A C93A C95U G140U | ≤ -4.2
104 | C5A C54U C75G G80C U82A C87U C99G | ≤ -4.2
105 | U4C U56G G83A C87A | ≤ -4.2
106 | U4G G48A U77G G83C U135A | ≤ -4.2
107 | C5G U53G G92A C103A U111G A120U | ≤ -4.2
108 | C5G A20U U33G A39C U55G C57A A91G A138C | ≤ -4.2
109 | C5G A12G A19U C75A C103G C114U G117A A121C A142U | ≤ -4.2
110 | U4G U13C A19G A52G U56G A64U G80C A91G C95G C105U U109A A119U | ≤ -4.2
111 | C5A C96A G143C | -3.53
112 | C5U A20U G50C G81A G117A C132U | ≤ -4.2
113 | C5G A29U U55G U78A G92C C118U U145A | ≤ -4.2
114 | C5A A17C G83A G143U | -2.68
115 | C5G G46C G50C C129U U134C C149U | ≤ -4.2
116 | C5G U77C C87G U134G | ≤ -4.2
117 | U4A A16U A17U A30C A39G A49U C87G A89C G133C U139C | ≤ -4.2
118 | C5G G68C C131U C132G U145G A150C | ≤ -4.2
119 | C5A C85A | -1.31
120 | U4C C32A A37G G83U A122U U151A | ≤ -4.2

Row | Variant | polymerase ribozyme fitness (log ratio)
121 | C5G U7C U13A A16G C51U G92C A98G C114A | -4.13
122 | C5A G74A G81U U139G | -3.53
123 | U4G U61G C76G C93G C103U | ≤ -4.2
124 | C5A G42C G84C C85A G86A G92C | ≤ -4.2
125 | U4G A26G U33A C54G G86A G88U U90G | ≤ -4.2
126 | U4C G58A C103A G124A | -3.54
127 | C5U A37U C51U | -1.26
128 | C5G U6G U61C C85U | -3.57
129 | C5G G50U G84U | -1.65
130 | U4G A30G C32A C85A G141C | ≤ -4.2
131 | U4A G136A | 0.134
132 | U4C G58C | 0.358
133 | C5U C63G A73G G81C C105U A115C A138C | ≤ -4.2
134 | C5G A37U G83C C129A U145A | ≤ -4.2
135 | C5A C14G G59A C85A C118G U139A | ≤ -4.2
136 | U4A A60U A97C U109A | -3
137 | U4G A23U G68A U127A | ≤ -4.2
138 | C5G G50A C87U | -2.86
139 | U4A G84A U101G | -0.65
140 | C5G U44A G59A A121C A122G | ≤ -4.2
141 | C5G G11U A17U A39U C57G A73G C79U A138G G141C U144G | ≤ -4.2
142 | C5A C57A C76U G81A G92C C132U | -2.21
143 | U6A A12G A30C A66U C95A A106G A120G G126C A150U | ≤ -4.2
144 | C5A A24U A40C A52C | -0.908

Row | Variant | polymerase ribozyme fitness (log ratio)
145 | U4C U53A C76G U90C U145C | ≤ -4.2
146 | U4A A24U C57G C85U | -0.18
147 | U6A A21U U55A | -0.47
148 | C5A C93U A98G C103A | -3.31
149 | C5U A40G C85G | -3.18
150 | U6A A19G C99A | -2.14
151 | C5G A41C U134C | -1.61
152 | C5U C85U U127C U145A | -2.5
153 | C5G C108U | -3.65
154 | U4G A37C G50U G59U G86U | -3.71
155 | U6A A24U A60G | 0.116
156 | U6A A26U U53G C103A U109C | ≤ -4.2
157 | C5A A20U A47U G74C G117A G126U | ≤ -4.2
158 | C5U A19U G83U G92U C123A G126U U146G | -4.19
159 | U4A A41G G84A U139G U146C | -0.701
160 | U4G G50A C96G U102G C123A | ≤ -4.2
161 | U6A A23C C76G G94A G141C G152U | ≤ -4.2
162 | U4C C10G A17U A22G C36U U78A G92A C118U | ≤ -4.2
163 | C5U G143C | -1.95
164 | U6A C54U C85G A115C | -2.97
165 | U6A A17C A52U G84U A89C G141A | -3.87
166 | C5G G141A | 0.249
167 | C5A A52C A73U U82C C85U G136U | ≤ -4.2
